The target of this assay is purified GST-RACK1 (human, UniProt P63244 1-317). In words: pull-down.

One molecule from publication PMC4586175 (Oncogene, 2009) can be followed below.

B1: purified His-WRN protein (natural protein)
chain: not shown
Regarding B1, the binding result was “binds”.
